Measured values: PMC3967765 (Archives of biochemistry and biophysics, 2014)

How the values were obtained:
[1] = target: T1, huCOX-2 (human cyclooxygenase-2) (Homo sapiens, UniProt P35354, N580A); settings: oxygen electrode
T1 sequence (P35354 18-604 N580A): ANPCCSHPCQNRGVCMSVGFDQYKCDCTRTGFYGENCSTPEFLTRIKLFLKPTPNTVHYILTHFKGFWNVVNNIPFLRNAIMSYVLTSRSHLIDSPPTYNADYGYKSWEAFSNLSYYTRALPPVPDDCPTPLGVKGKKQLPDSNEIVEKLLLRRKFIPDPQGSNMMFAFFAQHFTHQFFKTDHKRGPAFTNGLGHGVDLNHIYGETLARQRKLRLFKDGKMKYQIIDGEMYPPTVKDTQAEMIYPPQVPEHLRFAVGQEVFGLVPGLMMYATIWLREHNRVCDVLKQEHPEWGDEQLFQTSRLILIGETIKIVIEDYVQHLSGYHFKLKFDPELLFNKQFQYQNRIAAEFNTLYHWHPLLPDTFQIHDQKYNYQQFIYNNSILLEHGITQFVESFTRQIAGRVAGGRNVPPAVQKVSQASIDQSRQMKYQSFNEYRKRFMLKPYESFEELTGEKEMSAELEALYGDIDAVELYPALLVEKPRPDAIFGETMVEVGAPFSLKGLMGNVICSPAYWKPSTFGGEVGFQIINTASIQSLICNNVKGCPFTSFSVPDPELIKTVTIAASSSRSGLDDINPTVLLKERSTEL

[2] = target: T1, huCOX-2 (human cyclooxygenase-2)
[3] = substrate: CC/C=C\C/C=C\C/C=C\C/C=C\C/C=C\CCCC(=O)O; assay: purified protein; settings: heme (Fe3+-protoporphyrin IX)
[4] = substrate: CCCCC/C=C\C/C=C\C/C=C\C/C=C\CCCC(=O)O; assay: purified protein; settings: heme (Fe3+-protoporphyrin IX)
[5] = substrate: CCCCC/C=C\C/C=C\C/C=C\C/C=C\CCCC(=O)OCC(O)CO; assay: purified protein; settings: heme (Fe3+-protoporphyrin IX)
[6] = target: the molecule itself; assay: SEC

Q: How did the “% loss of activity” value [1] turn out when `COc1ccc2cc([C@H](C)C(=O)O)ccc2c1` [Napx, naproxen] was run?
A: 60-70 % loss of activity

Q: Which “oxygen electrode, 50 μM inhibitor, 30 min pre-incubation” value [2] does the source give for `Cc1ccc(Cl)c(Nc2ccccc2C(=O)O)c1Cl` [Meclo, meclofenamic acid] here?
A: Flurbiprofen, indomethacin, meclofenamic acid, and celecoxib caused near complete inhibition of cyclooxygenase activity.

B1: FLAG N580A murine (mu) COX-2 (enzyme, UniProt Q05769 18-604, looked up)
chain: ANPCCSNPCQNRGECMSTGFDQYKCDCTRTGFYGENCTTPEFLTRIKLLLKPTPNTVHYILTHFKGVWNIVNNIPFLRSLIMKYVLTSRSYLIDSPPTYNVHYGYKSWEAFSNLSYYTRALPPVADDCPTPMGVKGNKELPDSKEVLEKVLLRREFIPDPQGSNMMFAFFAQHFTHQFFKTDHKRGPGFTRGLGHGVDLNHIYGETLDRQHKLRLFKDGKLKYQVIGGEVYPPTVKDTQVEMIYPPHIPENLQFAVGQEVFGLVPGLMMYATIWLREHNRVCDILKQEHPEWGDEQLFQTSRLILIGETIKIVIEDYVQHLSGYHFKLKFDPELLFNQQFQYQNRIASEFNTLYHWHPLLPDTFNIEDQEYSFKQFLYNNSILLEHGLTQFVESFTRQIAGRVAGGRNVPIAVQAVAKASIDQSREMKYQSLNEYRKRFSLKPYTSFEELTGEKEMAAELKALYSDIDVMELYPALLVEKPRPDAIFGETMVELGAPFSLKGLMGNPICSPQYWKPSTFGGEVGFKIINTASIQSLICNNVKGCPFTSFNVQDPQPTKTATIAASASHSRLDDINPTVLIKRRSTEL
Q: B1 was tested. Which Km [3] did it give?
A: 1.9 µM

Q: And the kcat [3]?
A: 6.3 s⁻¹

Q: And the kcat/Km [3]?
A: 3.3e+06 M⁻¹ s⁻¹

Q: What about the Km [4] of the same molecule?
A: 6.8 µM

Q: And the kcat [4]?
A: 36.1 s⁻¹

Q: What about the kcat/Km [4] of the same molecule?
A: 5.3e+06 M⁻¹ s⁻¹

Q: What about the Km [5] of the same molecule?
A: 6.8 µM

Q: What about the kcat [5] of the same molecule?
A: 30.9 ± 0.7 s⁻¹

Q: What about the kcat/Km [5] of the same molecule?
A: 4.5e+06 M⁻¹ s⁻¹

Q: What about the “stoichiometry N” value [6] of the same molecule?
A: 2
